Laboratory results: the supplement of paper PMC10065799, “High-throughput profiling of sequence recognition by tyrosine kinases and SH2 domains using bacterial peptide display” (eLife, 2023)

Key:
MERTK = MERTK (UniProt Q12866); assay: phosphorylation enrichment, bacterial display (enrichment ratio); higher = better substrate or ligand; peptides without Tyr show the background
FGFR3 = FGFR3 (UniProt P22607); assay: as above
c-Abl (mouse) = assay: as above
Fes = Fes (UniProt P07332); assay: as above
EPHB2 = EPHB2 (UniProt P29323); assay: as above
c-Src = assay: as above
Hck = Hck (UniProt P08631); assay: as above
Fer (mouse) = assay: as above
Fyn = Fyn (UniProt P06241); assay: as above
AncSZ = assay: as above
FGFR1 = FGFR1 (UniProt P11362); assay: as above
Jak2 = Jak2 (UniProt O60674); assay: as above
EPHB1 = EPHB1 (UniProt P54762); assay: as above
SHP2-C SH2 = assay: SH2 binding enrichment of the phosphorylated peptide, bacterial display (enrichment ratio); higher = better substrate or ligand; peptides without Tyr show the background
Grb2 SH2 = Grb2 SH2 (UniProt P62993); assay: as above
c-Src SH2 = assay: as above
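Wherever SH2 binding enrichment of the phosphorylated peptide, bacterial display is given: peptide library displayed on the E. coli surface as eCPX fusions, selected cells deep-sequenced, score is each peptide's frequency after selection divided by its frequency in the input.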
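Wherever phosphorylation enrichment, bacterial display is given: 11-residue human phosphosite peptides and single-mutation variants displayed on the E. coli surface, counted by deep sequencing, each peptide's frequency after selection divided by its frequency in the unselected input library; frequency after pTyr selection over input frequency; kinase dosed for 20-30% of maximal phosphorylation in three min.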

FGFR1, sequence (P11362 whole entry, looked up): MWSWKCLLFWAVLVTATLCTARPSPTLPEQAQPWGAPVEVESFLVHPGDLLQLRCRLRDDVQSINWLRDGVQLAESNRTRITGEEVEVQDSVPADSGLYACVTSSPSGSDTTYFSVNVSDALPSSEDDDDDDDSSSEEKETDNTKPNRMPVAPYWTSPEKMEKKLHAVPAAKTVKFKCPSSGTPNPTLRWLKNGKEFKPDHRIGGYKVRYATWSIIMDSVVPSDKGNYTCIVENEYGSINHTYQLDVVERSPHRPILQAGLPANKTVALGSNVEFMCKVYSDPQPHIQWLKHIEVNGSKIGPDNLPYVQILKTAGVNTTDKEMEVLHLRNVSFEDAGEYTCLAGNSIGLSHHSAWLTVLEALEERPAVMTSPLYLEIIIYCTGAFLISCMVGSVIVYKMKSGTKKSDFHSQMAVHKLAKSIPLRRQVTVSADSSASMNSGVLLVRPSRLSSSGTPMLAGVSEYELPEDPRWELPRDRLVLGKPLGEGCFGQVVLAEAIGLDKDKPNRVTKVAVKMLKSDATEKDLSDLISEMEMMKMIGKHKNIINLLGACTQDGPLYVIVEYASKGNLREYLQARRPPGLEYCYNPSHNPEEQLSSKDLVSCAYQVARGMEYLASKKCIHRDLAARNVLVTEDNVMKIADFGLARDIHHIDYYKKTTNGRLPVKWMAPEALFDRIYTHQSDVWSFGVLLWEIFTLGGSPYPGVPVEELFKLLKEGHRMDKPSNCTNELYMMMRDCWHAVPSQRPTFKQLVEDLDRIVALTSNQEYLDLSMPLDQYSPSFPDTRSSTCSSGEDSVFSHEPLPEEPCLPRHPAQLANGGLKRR
EPHB2, sequence (P29323 whole entry, looked up): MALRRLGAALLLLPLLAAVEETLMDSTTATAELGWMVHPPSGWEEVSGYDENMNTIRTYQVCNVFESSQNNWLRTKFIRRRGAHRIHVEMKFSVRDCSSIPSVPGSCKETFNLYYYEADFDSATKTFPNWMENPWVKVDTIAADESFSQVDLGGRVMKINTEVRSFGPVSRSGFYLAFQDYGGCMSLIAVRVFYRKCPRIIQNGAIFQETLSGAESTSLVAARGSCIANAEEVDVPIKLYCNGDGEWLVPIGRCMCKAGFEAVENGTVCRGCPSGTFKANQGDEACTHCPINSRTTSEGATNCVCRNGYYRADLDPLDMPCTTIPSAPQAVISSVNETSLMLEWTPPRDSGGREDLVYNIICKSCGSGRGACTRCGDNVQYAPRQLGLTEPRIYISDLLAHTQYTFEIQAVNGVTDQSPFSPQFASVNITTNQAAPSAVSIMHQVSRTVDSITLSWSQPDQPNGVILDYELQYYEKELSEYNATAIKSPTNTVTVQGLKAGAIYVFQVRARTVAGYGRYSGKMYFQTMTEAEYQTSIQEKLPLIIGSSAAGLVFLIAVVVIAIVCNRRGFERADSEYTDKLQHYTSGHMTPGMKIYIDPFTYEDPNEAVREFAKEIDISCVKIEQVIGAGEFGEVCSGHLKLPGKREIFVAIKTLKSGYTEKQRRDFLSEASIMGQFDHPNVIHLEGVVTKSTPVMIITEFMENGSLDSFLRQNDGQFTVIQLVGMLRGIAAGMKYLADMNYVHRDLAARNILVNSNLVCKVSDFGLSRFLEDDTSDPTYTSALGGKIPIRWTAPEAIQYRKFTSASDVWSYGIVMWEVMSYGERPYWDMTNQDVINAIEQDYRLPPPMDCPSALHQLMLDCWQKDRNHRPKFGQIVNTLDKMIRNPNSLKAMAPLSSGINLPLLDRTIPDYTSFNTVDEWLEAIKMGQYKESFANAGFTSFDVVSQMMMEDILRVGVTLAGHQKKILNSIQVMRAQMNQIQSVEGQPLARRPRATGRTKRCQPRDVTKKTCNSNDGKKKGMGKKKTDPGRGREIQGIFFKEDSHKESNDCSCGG
FGFR3, sequence (P22607 whole entry, looked up): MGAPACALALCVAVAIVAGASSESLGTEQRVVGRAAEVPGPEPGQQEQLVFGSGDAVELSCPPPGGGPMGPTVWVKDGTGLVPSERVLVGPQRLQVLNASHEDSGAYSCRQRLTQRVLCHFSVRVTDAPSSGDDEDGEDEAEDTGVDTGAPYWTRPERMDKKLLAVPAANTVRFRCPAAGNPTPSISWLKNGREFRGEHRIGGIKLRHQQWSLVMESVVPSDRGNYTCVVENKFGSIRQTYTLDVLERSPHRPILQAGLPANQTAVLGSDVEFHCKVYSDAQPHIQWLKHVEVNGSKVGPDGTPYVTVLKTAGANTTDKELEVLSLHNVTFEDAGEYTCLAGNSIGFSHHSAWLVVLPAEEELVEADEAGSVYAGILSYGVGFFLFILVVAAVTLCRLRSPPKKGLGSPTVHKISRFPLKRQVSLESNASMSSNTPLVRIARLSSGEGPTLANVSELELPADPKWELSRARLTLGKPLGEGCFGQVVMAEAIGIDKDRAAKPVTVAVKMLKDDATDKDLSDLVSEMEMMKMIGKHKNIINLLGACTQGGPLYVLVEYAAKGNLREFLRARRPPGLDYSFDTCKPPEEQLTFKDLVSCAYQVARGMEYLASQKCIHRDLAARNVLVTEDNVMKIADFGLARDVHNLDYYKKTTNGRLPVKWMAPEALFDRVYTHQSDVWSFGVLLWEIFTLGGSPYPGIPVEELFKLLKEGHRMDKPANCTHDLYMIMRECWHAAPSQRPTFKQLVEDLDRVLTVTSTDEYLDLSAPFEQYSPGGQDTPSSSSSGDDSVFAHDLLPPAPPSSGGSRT
MERTK, sequence (Q12866 whole entry, looked up): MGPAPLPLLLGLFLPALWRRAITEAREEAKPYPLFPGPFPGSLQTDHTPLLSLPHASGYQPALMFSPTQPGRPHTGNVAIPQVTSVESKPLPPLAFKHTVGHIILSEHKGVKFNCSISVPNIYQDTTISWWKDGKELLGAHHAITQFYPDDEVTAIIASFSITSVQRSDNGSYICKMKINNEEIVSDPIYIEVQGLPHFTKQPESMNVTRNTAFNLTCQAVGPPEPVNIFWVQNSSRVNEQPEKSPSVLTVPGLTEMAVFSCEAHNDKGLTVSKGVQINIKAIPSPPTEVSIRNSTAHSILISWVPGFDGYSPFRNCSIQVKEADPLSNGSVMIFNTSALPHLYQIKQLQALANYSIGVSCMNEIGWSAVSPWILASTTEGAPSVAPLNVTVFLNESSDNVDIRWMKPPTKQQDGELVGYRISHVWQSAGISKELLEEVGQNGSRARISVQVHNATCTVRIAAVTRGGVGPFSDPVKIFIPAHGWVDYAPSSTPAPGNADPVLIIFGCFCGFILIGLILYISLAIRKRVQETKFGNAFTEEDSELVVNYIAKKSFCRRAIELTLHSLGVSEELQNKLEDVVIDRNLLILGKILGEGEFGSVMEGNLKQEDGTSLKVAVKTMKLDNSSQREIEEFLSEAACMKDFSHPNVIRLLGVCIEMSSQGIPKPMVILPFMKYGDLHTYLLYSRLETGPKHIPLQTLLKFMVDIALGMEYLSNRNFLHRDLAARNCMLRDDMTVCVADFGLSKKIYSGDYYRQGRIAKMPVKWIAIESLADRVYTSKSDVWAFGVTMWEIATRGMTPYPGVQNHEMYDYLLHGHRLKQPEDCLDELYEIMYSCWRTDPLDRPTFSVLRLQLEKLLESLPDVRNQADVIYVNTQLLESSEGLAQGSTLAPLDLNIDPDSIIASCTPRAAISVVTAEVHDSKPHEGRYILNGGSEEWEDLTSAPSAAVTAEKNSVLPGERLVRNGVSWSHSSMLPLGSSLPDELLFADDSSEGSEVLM
Fes, sequence (P07332 whole entry, looked up): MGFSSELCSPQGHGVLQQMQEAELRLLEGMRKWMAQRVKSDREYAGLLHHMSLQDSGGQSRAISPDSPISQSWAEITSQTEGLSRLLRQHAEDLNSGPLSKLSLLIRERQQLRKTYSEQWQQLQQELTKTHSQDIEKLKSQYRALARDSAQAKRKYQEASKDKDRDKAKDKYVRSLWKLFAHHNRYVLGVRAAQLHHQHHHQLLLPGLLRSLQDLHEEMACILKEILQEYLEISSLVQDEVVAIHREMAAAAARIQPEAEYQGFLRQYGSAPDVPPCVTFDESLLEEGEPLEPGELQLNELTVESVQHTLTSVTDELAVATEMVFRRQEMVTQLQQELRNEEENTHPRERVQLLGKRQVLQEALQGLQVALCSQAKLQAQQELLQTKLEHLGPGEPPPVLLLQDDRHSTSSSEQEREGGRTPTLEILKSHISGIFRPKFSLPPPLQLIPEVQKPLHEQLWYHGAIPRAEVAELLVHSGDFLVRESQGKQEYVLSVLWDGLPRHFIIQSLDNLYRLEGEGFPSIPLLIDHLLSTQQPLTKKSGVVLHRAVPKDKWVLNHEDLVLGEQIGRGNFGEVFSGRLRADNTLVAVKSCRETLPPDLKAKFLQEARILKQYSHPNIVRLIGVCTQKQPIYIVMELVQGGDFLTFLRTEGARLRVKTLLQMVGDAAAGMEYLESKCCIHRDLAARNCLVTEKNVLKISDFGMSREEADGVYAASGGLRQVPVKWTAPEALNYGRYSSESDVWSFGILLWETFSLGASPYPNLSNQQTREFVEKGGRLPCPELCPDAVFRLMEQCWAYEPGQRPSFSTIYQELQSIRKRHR
Hck, sequence (P08631 whole entry, looked up): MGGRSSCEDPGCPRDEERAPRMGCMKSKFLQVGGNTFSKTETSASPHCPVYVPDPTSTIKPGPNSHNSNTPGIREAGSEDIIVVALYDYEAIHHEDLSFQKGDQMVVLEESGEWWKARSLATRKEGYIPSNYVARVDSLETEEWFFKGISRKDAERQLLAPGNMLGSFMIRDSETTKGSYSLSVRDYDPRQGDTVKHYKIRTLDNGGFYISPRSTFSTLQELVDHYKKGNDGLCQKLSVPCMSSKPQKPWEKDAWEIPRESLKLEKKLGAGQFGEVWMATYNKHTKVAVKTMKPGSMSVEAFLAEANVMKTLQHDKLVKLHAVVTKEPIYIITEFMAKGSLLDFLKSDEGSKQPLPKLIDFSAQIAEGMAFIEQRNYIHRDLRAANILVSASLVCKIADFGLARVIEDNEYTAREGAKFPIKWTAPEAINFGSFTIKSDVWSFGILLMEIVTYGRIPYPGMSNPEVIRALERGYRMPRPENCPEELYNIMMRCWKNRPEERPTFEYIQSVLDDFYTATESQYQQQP

Sequence	SH2 binding enrichment (SHP2-C SH2)	SH2 binding enrichment (Grb2 SH2)	SH2 binding enrichment (c-Src SH2)	phosphorylation enrichment (MERTK)	phosphorylation enrichment (FGFR3)	phosphorylation enrichment (c-Abl (mouse))	phosphorylation enrichment (Fes)	phosphorylation enrichment (EPHB2)	phosphorylation enrichment (c-Src)	phosphorylation enrichment (Hck)	phosphorylation enrichment (Fer (mouse))	phosphorylation enrichment (Fyn)	phosphorylation enrichment (AncSZ)	phosphorylation enrichment (FGFR1)	phosphorylation enrichment (Jak2)	phosphorylation enrichment (EPHB1)
QFLMMYVWSAS [ABCD1_Y337_K336M]	1.03	0.929	0.543	0.541	1.22	1.27	1.58	0.931	0.779	0.912	0.807	0.465	1.53	0.426	1.46	0.873
QFQEKYKQMEQ [HCN4_Y531_V534M_YF]	0.956	0.844	0.472	0.554	1.05	0.976	1.87	0.576	0.366	1.53	0.502	0.93	1.24	0.654	1.36	0.608
QGFDTYFGFLL [ARSB_Y165_R160Q_YF]	0.724	0.717	0.345	6.29	5.31	1.33	2.08	7.17	7.09	8.45	8.02	11.4	3.29	6.18	4.81	4.39
QGLMPYGQPRP [SRRT_Y798]	0.653	0.955	0.357	0.596	0.527	0.725	0.863	0.513	0.883	0.563	0.424	0.488	0.853	0.696	0.601	0.568
QKFMAYLSQGG [HLCS_Y236]	1.17	1.23	0.877	0.517	0.64	0.446	0.745	0.803	0.542	0.738	0.487	1.2	0.839	0.466	0.945	0.731
QLPRGYISILV [BAG3_Y205_P209L]	0.682	1.04	0.6	0.611	0.748	0.806	1.38	0.848	0.479	0.675	0.663	0.563	1.11	0.589	1.07	0.583
QMVRMYASSYM [AVPR2_Y124_G122R]	0.64	0.899	0.455	0.659	0.988	0.675	1.28	0.787	0.464	0.621	0.717	0.557	1.31	0.622	0.764	0.842
QQTYTYDSGIH [JUP_Y22]	0.535	1	0.744	3.33	1.38	0.841	1.35	1.5	1.41	1.61	0.454	1.65	1.45	1.12	1.2	1.09
QRIFQYIQSRF [DYRK1B_Y273_YF]	1.17	1.15	0.9	0.728	0.619	0.583	1.45	0.356	0.557	0.572	0.693	0.502	1.09	0.416	1.58	0.707
QTLTDYDIRFF [CSNK2A1_Y131_YF]	0.651	0.794	0.413	0.531	0.888	0.737	1.48	0.677	0.481	0.691	0.604	0.709	1.16	0.569	0.998	0.626
QYQEKYKQMEQ [HCN4_Y531_V534M]	0.705	0.891	0.436	0.287	0.827	0.584	1.23	0.507	0.374	0.431	0.632	0.547	0.99	0.618	0.684	0.61
RAADYYSQQMA [GBP6_Y334]	0.63	1.01	0.545	0.39	0.875	0.576	0.619	0.339	0.435	0.456	0.416	0.371	0.537	1.38	0.672	0.917
RCKNHYAAFSV [C1QTNF1_Y145_S143N]	1.7	1.98	1.67	0.572	0.56	0.72	0.749	0.562	0.633	0.615	0.488	0.415	0.538	0.488	0.63	0.286
REDVFYTSKLW [AKR1C2_Y81_I79V]	0.729	0.807	0.511	1.3	1.05	1.25	1.45	0.631	0.662	0.802	0.422	0.89	1.52	0.742	1.41	0.759
RENGPYYTSYP [GDAP2_Y487]	0.597	1.09	0.955	5.69	3.32	1.55	1.05	1.45	3.17	1.98	0.618	2.55	1.17	3.44	0.863	0.896
REVPVYTYSEP [FAM120B_Y368_D370Y]	0.614	0.853	3.29	5.36	1.81	1.97	1.82	2.33	5.2	4.16	12.9	9.05	3.86	1.56	1.13	3.19
RFMELYDLNRD [BBS2_Y648_YF]	1.06	1.02	0.563	0.459	0.883	0.556	1.28	0.812	2.04	1.14	0.703	1.25	1.28	0.762	0.909	0.61
RGDTVYTVNCM [KBTBD13_Y404_R408C]	0.793	0.752	0.475	0.734	0.686	0.697	1.08	0.636	2.45	1.21	0.547	3.11	0.937	0.479	0.844	0.692
RGEKQYLATPL [ALOX12_Y295_A298T]	0.766	0.784	0.569	0.53	0.711	1.02	1.01	0.342	0.812	0.484	0.571	0.665	0.861	1.06	0.931	0.598

Further lines, with some results ahead:

SH2 binding enrichment (SHP2-C SH2)	SH2 binding enrichment (Grb2 SH2)	SH2 binding enrichment (c-Src SH2)	Sequence	phosphorylation enrichment (MERTK)	phosphorylation enrichment (FGFR3)	phosphorylation enrichment (c-Abl (mouse))	phosphorylation enrichment (Fes)	phosphorylation enrichment (EPHB2)	phosphorylation enrichment (c-Src)	phosphorylation enrichment (Hck)	phosphorylation enrichment (Fer (mouse))	phosphorylation enrichment (Fyn)	phosphorylation enrichment (AncSZ)	phosphorylation enrichment (FGFR1)	phosphorylation enrichment (Jak2)	phosphorylation enrichment (EPHB1)
1.51	1.63	1.28	QFFQGYFNNNF [ZNF236_Y644_S643G]	0.58	0.845	1.23	1.2	0.496	0.721	0.574	0.356	0.42	1.15	0.643	1.55	0.545
0.646	1.03	0.745	QITQVYGFFHE [PPP2CA_Y127_D131H_YF]	5.31	1.26	1.14	1.39	1.11	9.89	14.3	0.72	17.8	1.67	0.647	0.915	0.788
0.945	1.03	0.385	QKMADYSNKLF [PDPR_Y104_YF]	0.788	0.586	1.26	1.41	0.647	0.81	0.554	0.362	0.683	1.16	0.741	1.41	0.662
0.534	0.529	0.283	QMQLKYSQSDL [SMC1A_Y714_R711Q]	0.69	0.735	0.885	1.32	0.494	0.457	0.655	0.621	0.654	0.973	0.829	0.569	0.68
0.526	0.921	0.49	QMQNPYSSHSS [MUC13_Y501_R503S]	0.432	0.611	0.446	0.659	0.718	0.818	0.449	1.26	1.15	0.625	0.636	0.467	0.546
0.867	1.04	0.599	QNTGNYFDLFG [PTPN11_Y62_D61N_YF]	10.8	15.3	1.28	1.44	22.6	0.71	0.49	0.925	0.541	1.6	21.2	4.13	27.6
0.688	0.731	0.661	QNTGVYFDLFG [PTPN11_Y62_D61V_YF]	3.19	11.6	0.912	1.52	1.33	2.02	3.34	0.831	3.82	2	12.8	1.95	2.93
2.18	1.54	6.14	QNTGYYYDLYG [PTPN11_Y62_D61Y]	15.6	17.8	1.25	1.96	17.9	7.11	9.49	4.32	7.01	1.9	21.1	8.69	18.4
0.713	1.2	0.693	QYRFIYMAVQH [PTPN11_Y515]	0.729	1.48	0.973	1.22	0.947	1.93	2.21	1.29	1.82	1.32	0.667	1.21	1.52
0.459	1.29	0.351	RAMPVYKKAEH [TP63_Y231]	0.292	0.238	0.301	0.379	0.26	0.288	0.27	0.28	0.337	0.462	0.304	0.306	0.197
